# Laboratory results taken from publication doi:10.1101/2025.08.06.668938 (bioRxiv, 2025).
# Assays:
# TNF-α = biological target: T1, TNF-α (Homo sapiens, UniProt P01375, biotinylated (said of the BLI experiment)); test: ELISA; screening ELISA; antigen coated at 1 µg/mL (30 ng/well) in bicarbonate coating buffer on 384-well MaxiSorp overnight at 4°C; blocked with 4% milk in PBS; antibody at 1 µg/mL in PBS, 2 h at room temperature; goat anti-human IgG Fc-HRP, TMB, absorbance at 450 nm; settings: both partners purified
# T1 construct: TNF-α, a pro-inflammatory cytokine, target of adalimumab; also called Purified TNF-α; biotinylated TNF-α; source: bought: Acro Biosciences (Cat #TNA-H82E3, Lot #BV2043-241DF11R8)
# Human PD-1 = biological target: T2, Human PD-1 (human, UniProt Q15116); test: as above; settings: both partners purified
# T2 construct: programmed death receptor 1 (PD-1), human, target of pembrolizumab; The printed catalogue number is that of the TNF-α product, probably a slip; also called programmed death receptor 1; Target (pembrolizumab panels); source: bought: Acro Biosciences (printed Cat #TNA-H82E3, Lot #BV2043-241DF1-1R8)
# T2 sequence (Q15116 25-170): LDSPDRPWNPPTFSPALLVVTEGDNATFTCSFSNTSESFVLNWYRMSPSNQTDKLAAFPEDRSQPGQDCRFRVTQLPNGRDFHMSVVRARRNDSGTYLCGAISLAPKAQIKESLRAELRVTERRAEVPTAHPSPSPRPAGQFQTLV
# T1 sequence (P01375 77-233): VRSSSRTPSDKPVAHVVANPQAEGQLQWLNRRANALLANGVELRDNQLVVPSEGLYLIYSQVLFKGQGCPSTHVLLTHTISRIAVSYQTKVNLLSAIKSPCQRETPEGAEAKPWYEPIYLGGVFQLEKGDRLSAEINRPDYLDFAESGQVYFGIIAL
binder,measurement,setting,value
"adalimumab VH paired with germline IGKV7-3*01/IGKJ1*01 with the adalimumab light CDRs grafted (antibody, V domains shown, as the VH of m3 (native VH of adalimumab); germline V-gene IGKV7-3*01 combined with J-gene IGKJ1*01, all three light CDRs of adalimumab (Kabat definition) grafted; Whole antibody; also called Germline-3+ (adalimumab)) VH: not shown VL: DIVLTQSPASLAVSPGQRATITCRASQGIRNYLAWYQQKPGQPPKLLIYAASTLQSGVPARFSGSGSGTDFTLTINPVEANDTANYYCQRYNRAPYTFGQGTKVEIK",binding result,TNF-α,binds
"adalimumab VH paired with LICHEN-3 light sequence (pairing_CDRs) (antibody, V domains shown, as the VH of m3 (native VH of adalimumab); Whole antibody; also called LICHEN-3 (adalimumab)) VH: not shown VL: DIVMTQTPPSSPVTLGQPASISCRASQGIRNYLAWYQQKPGQSPKLLISAASTLQSGVPSRFSGSGSGTDFTLKISSLQPEDVATYYCQRYNRAPYTFGQGTKLEIK",binding result,TNF-α,binds
"adalimumab VH paired with LICHEN-5 light sequence (pairing_CDRs) (antibody, V domains shown, as the VH of m3 (native VH of adalimumab); Whole antibody; also called LICHEN-5 (adalimumab)) VH: not shown VL: EIVLTQSPATLSLSPGERATLSCRASQGIRNYLAWYQQKPGQAPRLLIYAASTLQSGIPARFSGSGSGTDFTLTISSLEPEDFAVYYCQRYNRAPYTFGQGTKLEIK",binding result,TNF-α,binds
"pembrolizumab (antibody, V domains shown, native VH of the therapeutic pembrolizumab (humanised, IGHV1); Whole antibody (detected by anti-human IgG Fc); also called therapeutic; positive control (pembrolizumab panels)) VH: QVQLVQSGVEVKKPGASVKVSCKASGYTFTNYYMYWVRQAPGQGLEWMGGINPSNGGTNFNEKFKNRVTLTTDSSTTTAYMELKSLQFDDTAVYYCARRDYRFDMGFDYWGQGTTVTVSS VL: EIVLTQSPATLSLSPGERATLSCRASKGVSTSGYSYLHWYQQKPGQAPRLLIYLASYLESGVPARFSGSGSGTDFTLTISSLEPEDFAVYYCQHSRDLPLTFGGGTKVEIK",binding result,Human PD-1,binds
"pembrolizumab VH paired with germline IGKV3-20*01/IGKJ1*01 with the pembrolizumab light CDRs grafted (antibody, V domains shown, as the VH of m13 (native VH of pembrolizumab); germline V-gene IGKV3-20*01 combined with J-gene IGKJ1*01, all three light CDRs of pembrolizumab (Kabat definition) grafted; Whole antibody; also called Germline-1+ (pembrolizumab)) VH: QVQLVQSGVEVKKPGASVKVSCKASGYTFTNYYMYWVRQAPGQGLEWMGGINPSNGGTNFNEKFKNRVTLTTDSSTTTAYMELKSLQFDDTAVYYCARRDYRFDMGFDYWGQGTTVTVSS VL: EIVLTQSPGTLSLSPGERATLSCRASKGVSTSGYSYLHWYQQKPGQAPRLLIYLASYLESGIPDRFSGSGSGTDFTLTISRLEPEDFAVYYCQHSRDLPLTFGQGTKVEIK",binding result,Human PD-1,binds
"pembrolizumab VH paired with germline IGKV3-11*01/IGKJ1*01 with the pembrolizumab light CDRs grafted (antibody, V domains shown, as the VH of m13 (native VH of pembrolizumab); germline V-gene IGKV3-11*01 combined with J-gene IGKJ1*01, all three light CDRs of pembrolizumab (Kabat definition) grafted; Whole antibody; also called Germline-2+ (pembrolizumab)) VH: QVQLVQSGVEVKKPGASVKVSCKASGYTFTNYYMYWVRQAPGQGLEWMGGINPSNGGTNFNEKFKNRVTLTTDSSTTTAYMELKSLQFDDTAVYYCARRDYRFDMGFDYWGQGTTVTVSS VL: EIVLTQSPATLSLSPGERATLSCRASKGVSTSGYSYLHWYQQKPGQAPRLLIYLASYLESGIPARFSGSGSGTDFTLTISSLEPEDFAVYYCQHSRDLPLTFGQGTKVEIK",binding result,Human PD-1,binds
"pembrolizumab VH paired with germline IGKV7-3*01/IGKJ1*01 with the pembrolizumab light CDRs grafted (antibody, V domains shown, as the VH of m13 (native VH of pembrolizumab); germline V-gene IGKV7-3*01 combined with J-gene IGKJ1*01, all three light CDRs of pembrolizumab (Kabat definition) grafted; Whole antibody; also called Germline-3+ (pembrolizumab)) VH: QVQLVQSGVEVKKPGASVKVSCKASGYTFTNYYMYWVRQAPGQGLEWMGGINPSNGGTNFNEKFKNRVTLTTDSSTTTAYMELKSLQFDDTAVYYCARRDYRFDMGFDYWGQGTTVTVSS VL: DIVLTQSPASLAVSPGQRATITCRASKGVSTSGYSYLHWYQQKPGQPPKLLIYLASYLESGVPARFSGSGSGTDFTLTINPVEANDTANYYCQHSRDLPLTFGQGTKVEIK",binding result,Human PD-1,binds
"adalimumab VH paired with LICHEN-2 light sequence (pairing_CDRs) (antibody, V domains shown, as the VH of m3 (native VH of adalimumab); Whole antibody; also called LICHEN-2 (adalimumab)) VH: not shown VL: DIQMTQSPSFVSASVGDRVTITCRASQGIRNYLAWYQQKPGKAPEVLISAASTLQSGVPSRFSGSGSGTEFTLTITNLQPEDSATYFCQRYNRAPYTFGQGTRLDIK",binding result,TNF-α,binds
